# Experimental data taken from the DeepSol protein solubility set.
# Test: soluble on expression in E. coli; label from the status in PepcDB or PDB records
row,Sequence,soluble on expression in E. coli
1,GMAPDQQVPATALGKSSRISLDGRRSERSVILADGSMHSLTLLHPGVYTLSSEVAETIRVLSGMAYYHAEGANDVQELHAGDSMVIPANQSYRLEVMEPLDYLLSS,soluble
2,MIYPDETMLYAPVEWHDCSEGYTDIRYEKSTDGIAKITINRPQVRNAFRPLTVKEMIQALADARYDDNVGVIILTGEGDKAFCAGGDQKVRGDYGGYQDDSGVHHLNVLDFQRQIRTCPKPVVAMVAGYSIGGGHVLHMMCDLTIAAENAIFGQTGPKVGSFDGGWGASYMARIVGQKKAREIWFLCRQYDAQQALDMGLVNTVVPLADLEKETVRWCREMLQNSPMALRCLKAALNADCDGQAGLQELAGNATMLFYMTEEGQEGRNAFNQKRQPDFSKFKRNP,not soluble
3,MTTRDLFADHAPADDRRIALGEAAVVLRGFALAEATALLAAIDDIARQAPFRHMVTPGGFEMSVALTNCGALGWTSDRRGYRYAARDPQTGQPWPPLPDCFLRLARDAAAAAGFPGFTPDACLINRYVPGARLSLHQDKDEQDYGAPIVSVSLGMPAMFLWGGHRRTDKTLRVPLFHGDVVVWGGPDRLRYHGVLPLKEAAHPLLGAQRINLTLRRAGLEHHHHHH,soluble
4,MAHHHHHHMETENVPLENEENQNENYEQEENTLAQEAEIVLITTSLGGIKSSFFSSLRAHQLLNCKKYIYFSIDANRDTSSAKNLKDIELFNKWKKGMILLSNENGIVLPQILIDGVPLGNDVTLQNLEDEGILDYIIARLKCPNCLIDKSNIEERCPGCKKYYVTLITDDLIQNDSVIRILQGEPYKEPENE,soluble
5,MGSDKIHHHHHHMKLYELAMTPSARRVNIFLKELGLNEQELGLERESLNLRAGDNLSDEFKAISVNGRIPVLELDDGQTLCESVAICRYFDEIITSAHSLFGDTPLEKAQVEMWQRICELQGLFVAFQAFRNITKVYEDRERCVEAWGQESRQRVIEFLPTLEKQLGQQPFVAGQNFSIADITAYVMMSFIKHLEITPSDDQPHLTAWLTKMEQRPSIIAVNG,not soluble
6,GSPHMDEISETNTIFKLEGVSVLSPLRKKLDLVFYLSNVDGSPVITLLKGNDRELSIYQLNKNIKMASFLPVPEKPNLIYLFMTYTSCEDNKFSEPVVMTLNKENTLNQFKNLGLLDSNVTDFEKCVEYIRKQAILTGFKISNPFVNSTLVDTDAEKINSFHLQCHRGTKEGTLYFLPDHIIFGFKKPILLFDASDIESITYSSITRLTFNASLVTKDGEKYEFSMTDQTEYAKIDDYVKRKQMKDKSMSEELKAKSKSKG,soluble
7,MVAQARRQGCGERLTTATAVATPATAEQGETTMETVEEFLAHSIKLEQEAALRFGQLADAMDSCGNKEVSKLFRQLADYSRMHQADAQARAGFRDIPQMEPGDFKWPGLESPEAAAIWGTDPFIGRDLALQIALEAETGAFDWYKNVLDTTDNPEIKMLAKEFVEEESGHVAELHRWIALHKAGKPLPMEIVPF,not soluble
8,MAHHHHHHMKIRTVLRKRIRLHGTNCPGFTCHHNRFSRLLKTWVVVLPPKQLAVYKNGVQLLLQLVTEHLTGDGDVLLQLRYQHMIAKEMLSGRHNTASFRVTYGFLTFDGVNPKVCAMNLLCGNPLIVKHSACLQCTHPSFVRVLNFCVTLKKRRTIVSKPQGRPTKKQLKVAPQHR,not soluble
9,TPQYESTTKMYVLSKQDNNTLTQQDMQTSLSLTKDYAELIKSRTVTEGVIAQLNLDLTHEELLKKMTVDSATDTRILSITVTDADPYEACKIANAIRDVAANHIKNVMDIDAVNVVETANIPDQQSSPSISKN,not soluble
10,MSTPSHLNAQPLVWGHGPRTFEVFLEPTCPYSVRAFNKLDDLLDEVGADNVTIKIRLQSQPWHLFSGVIVRCILAASTLPHGREQAHKVMQAVADHREEFEFTDHCSGPNMNATPQQIIERIERYSHVLLGAAFARPELQDVIKWHSKYARQNGIHVSPTFMVNGLVQPDLGSGDDVSVWAARIMA,not soluble
11,MGSDKIHHHHHHMINTALRLAAPEIEAFLQGRIIAAMPNKFITPGREFALCPSDASINLLPVEQYYRSSFLPIAQSAFAQLNIQGVLIQPQQMNLLIDEEQLKLPILAYETVLIKTWAKCELCQIINNTESFAALSQLTIWTTEALKEILRQKQNIFLAYLRVYELPKSIEVPIKSNSQFVALSQPLNVSEDKPVLKDRTFAQRKHQLEKLQPPLHPELEELQSAIASLSISQPAAKQLDDDIKVFLGWSSDKLTNPLDSDLPWIQNIAKVGNSSDGHTFEKLVRRGLLKLGFTGSGLNPDATGGAGGMDFYAEQPYPIVGECKATKTEKVTDGTPAQLLKIGMNHLGKFQYDNSIKLIVAAGELNFYALRTATENQMNIVSPETLQKLVELQAHYKNSINLLDLSGNKRE,not soluble
12,MSLFFSLPYRFNVLSVVIASIPTLAFPTTFSDSTFFHKDWEIVCDNTLTCRAAGYSPEEKGMGEDTGTQDVSLLITRHAGQNTPITAEVTLAEVDKEIPKGTRLTLAIDGVDKGVLTSTEDNLWQLNETQIPAVLQALKGRGKVAFLHDGMVSELSGAGAYAVLLKMDERQGRIGTTDAITKKGNKSSELSAVAAPVIYAAATSQEPSRNLTNAEQAAIQKKLLKTLKEDDCYDFPPQEERVAEPMMITPLNGSMSLLSTLCWRAAYNEGYAYWVIDNAMQTQPQLMTTIGVGYENGEITAVQKGRGLADCMSDSAWVWDGKTFQQSRASITGSCRMIRLGGTWDLPYWTATVIRPGKEGHHHHHH,soluble
13,MGSDKIHHHHHHMTQLAPDSSIINAQACLSLDEAYEACRKETAQWAKTFYLGTMLLPSIKRRAIWAIYVWCRRTDELMDSAEAQTRPVSELANRLDQWEERTRAMFAGQVLDGLDAVMADTLERFPQSIQPYLDMIEGQRMDLNQHRYATFQQLELYCYRVAGTVGLMTQHVMGLDPAYTTAPWSSSPETSDAAIALGIANQLTNILRDVGEDRGRGRIYIPQEDLDRFGYSEADLMAGRLNSAWKDLMAFQLERAREWFARSEAGVRWLSQDARWPVWASLRLYRGILDSIERLDYDVFNNRAYVSRWMKLVDLPLSYLMAQAR,not soluble
14,MAHHHHHHMALIQTAHDACSRKVHCVRKGYLNDPFVSFFEKDHTIVNSPLMNRGTWLRTTAFENCVRGFATAAGQPIQVINFGAGMDTLYFRLKHSDPQFPVQKFMELDLADLVAEKERIIKRHSEMHSLVGSQYVLVSCDLYDAKGVAKALKEHLHGGTPTIMIAEMVFVYIEGSVTTNLLRTVMSDVIEPGTKTMLVTYDAIQPFDRFGKVMVENLQHFGADFKGIGDFPTPEAHAGRCSELGFKAVKSVTMKNLYLGVPRQIQIRLNKLEMIDDWEEWNLMHEHYCFVVASTEDAPLPKLF,not soluble
15,MENRRIVIITGANSGIGKEAAQRFANEGDHVIMACRNIAFSRKVQHDIIAASGNDHVDLLELDVSSFASIRTFCTTFNSQYKRLDILIHNAAYFNHGEPYRLSPDGIELTFATNVFGPYLLTSLLRDRLKQSEDPRILHAGSNIIKHFFDPKQTFDLDLLQGNHGTKSYSVYKMYCQSKMALMLLTFQMAEVFADDGIKVNALQINGAKMSKRTIQKVKPWWRPIAWGQNLFFPPPSYMADKYFTICTSDKYKQTTGKLFNDKLEIMEPSPTHYPGFFKQMKLLLGSNVYPAYENTNIREKLWALCKELVGELEHHHHHH,not soluble
16,MPEITESERAYHLRKMKTRMQRVDVTGDGFISREDYELIAVRIAKIAKLSAEKAEETRQEFLRVADQLGLAPGVRISVEEAAVNATDSLLKMKGEEKAMAVIQSLIMYDCIDTDKDGYVSLPEFKAFLQAVGPDLTDDKAITCFNTLDFNKNGQISRDEFLVTVNDFLFGLEETALANAFYGDLVD,soluble
17,GSHMGIKNDLEIRLQKLQQQGNFKNYLEQYPTDASTAAYFLIEIYNDGNIGGRSVIDAGTGNGILACGSYLLGAESVTAFDIDPDAIETAKRNCGGVNFMVADVSEISGKYDTWIMNPPFGSVVKHSDRAFIDKAFETSMWIYSIGNAKARDFLRREFSARGDVFREEKVYITVPRIYRHHSYDRARIEAVIFGVRNHSF,soluble
18,MSLAKQDELVFLPLGGVGEIGMNLALYGYGPPEHRQWIMVDCGVTFPGPDLPGVDLVLPDIRFLASERKNLKAIIITHAHEDHYGALADLWPGLNVPVYASGFTAGLLEAKRNFEKAKIGEVPVTPFKAGDTINVGPFSIEGVAVNHSIPEPMSLMIRTPVGNVIHTGDWKIDHEPSLGPLTDETRFRQLGDEGVLALMCDSTNALRDGVSPSEKDVSESLRKIIENAEGRVAITTFSSNVGRIRTVAEAAEAAGREVLLLGSSLKRVVDVAQDVGLMEGVKPFISEEEYGYIPRDKVVVILTGSQGEARAALAKLSRDEMRNVAFAAGDIVVFSSRAIPGNEKAIQDIKNGLVEQGVHIITDTEALVHVSGHPRRNELQRMYEWTRPKIVVPVHGEATHLTAHKELAEQSGIALVPRVRNGDILRLAPGEGHHHHHH,soluble
19,SMDTNADIYDQTASTFFPNGEAMWKKMVEDLKKAEKFIFLEYYIIEEGLMWNRILDILEQKVAQGVEVKMLYDDIGCMATLTGDYAHRLRQLGIEAHKFNKVIPRLTVAYNNRDHRKILIVDGQIAYTGGVNLADEYINHVERFGYWKDSGIRLDGLAVKALTRLFLTTWYINRGEISDFDQYH,not soluble
20,SVEVITHPGVNSNYLSKNLLRSIFGMRLRTWQDGLPVRVFVLPDDAPLHSTFTKQKLNIFPYQLRSAWDRMVYSGTGQAPFVVHTEEEMRARIASTPGAIGYLSGSMINDSVQVVHID,not soluble
21,MNNGFFNSDFDSIFRRMMKDMQGSNQVGNKKYYINGKEVSPEELAQLTQQGGNHSAEQSAQAFQQAAQRQQGQQGGNGNYLEQIGRNLTQEARDGLLDPVIGRDKEIQETAEVLSRRTKNNPILVGEAGVGKTAIVEGLAQAIVEGNVPAAIKDKEIISVDISSLEAGTQYRGAFEENIQKLIEGVKSSQNAVLFFDEIHQIIGSGATGSDSGSKGLSDILKPALSRGEISIIGATTQDEYRNNILKDAALTRRFNEVLVNEPSAKDTVEILKGIREKFEEHHQVKLPDDVLKACVDLSIQYIPQRLLPDKAIDVLDITAAHLSAQSPAVDKVETEKRISELENDKRKAVSAEEYKKADDIQNEIKSLQDKLENSNGEHTAVATVHDISDTIQRLTGIPVSQMDDNDIERLKNISNRLRSKIIGQDQAVEMVSRAIRRNRAGFDDGNRPIGSFLFVGPTGVGKTELAKQLAIDLFGNKDALIRLDMSEYSDTTAVSKMIGTTAGYVGYDDNSNTLTEKVRRNPYSVILFDEIEKANPQILTLLLQVMDDGNLTDGQGNVINFKNTIIICTSNAGFGNGNDAEEKDIMHEMKKFFRPEFLNRFNGIVEFLHLDKDALQDIVNLLLDDVQVTLDKKGITMDVSQDAKDWLIEEGYDEELGARPLRRIVEQQVRDKITDYYLDHTDVKHVDIDVEDNELVVKGK,not soluble
22,KNFNPPTRRNWESNYFGMPLQDLVTAEKPIPLFVEKCVEFIEDTGLCTEGLYRVSGNKTDQDNIQKQFDQDHNINLVSMEVTVNAVAGALKAFFADLPDPLIPYSLHPELLEAAKIPDKTERLHALKEIVKKFHPVNYDVFRYVITHLNRVSQQHKINLMTADNLSICFWPTLMRPDFENREFLSTTKIHQSVVETFIQQCQFFFYNGEIVE,soluble
23,MKQVAVISGKGGTGKTTFSATIHALEGGVVADCDVDAPNLHILLKPQILKAEDFIASKKARIMPEKCSSCGLCYDLCRFGAVVAEDGYYVDEKKCEGCAFCFNVCPERAIEMENVKTGDLYVSKTEWGYFVHARLKPGEENTGRLVTEVKNRAKEIAEESNAEFLIVDSAPGVGCPVMASLTGVDAAIIVTEPTVSGLSDMLRILELCEHFRIRPFVVVNKFDLNVNIASEIESYCSENGVEFAGRVPFDKAIPEQIANLNFPFSGKAADKMVEIWKKLREVLLEHHHHHH,soluble
